Results from patent US20090258926A1 (CENTRE NATIONAL DE LA RECHERCHE SCIENTIFIQUE, published 2009).

Biological target: importin α of the cellular nuclear import machinery (endogenous, in Hs68 human fibroblasts)
Experiment: cell-based or functional assay

| Binder | luciferase expression after 12 hrs in synchronized Hs68 cells, relative to expression after 48 hrs [%] | transfection efficiency (luciferase) after 48 hrs relative to MPG [%] |
| --- | --- | --- |
| Ac-GALFLGFLGAAGSTMGAWSQPKKKRKV-cysteamide (not fully specified) [MPG peptide (wild-type MPG), tested as MPG/DNA complex with plasmid] | 65 | – |
| Ac-GALFLGFLGAAGSTMGAWSQPKSKRKV-cysteamide (not fully specified) [MPG^ΔNLS peptide, tested as MPG^ΔNLS/DNA complex with plasmid] | – | 72 |
